# Results reported in the DeepSol protein solubility set.
# Experiment: soluble on expression in E. coli; label from the status in PepcDB or PDB records
row,Sequence,soluble on expression in E. coli
1,MGSDKIHHHHHHMPAIIKQFFFKSHEMTLSDPRFLSLNQWLNAYFSDEVTPVLISGDASFRRYFRITTPDATFIAADSPPQLVPIAPFIALSNAYAAVGLTVPKVIHADAAQGFMLMSDLGDTQLLSVLNVQNVADYYRQALDLLPQVASVVASQHLDSGLVQPLPLYDEAFVRRELHIFTEWLLGTHLNLSLDESEQQMLSHSFDLLVDYALSQPSVGMHRDFHSRNLMLQAGELCVIDFQDAVVGPVTYDAVSLLRDCYIRWPQPLVADLMQYHYQQALALGFIPALTTLEQYQTWFDLMGLQRHIKAVGIFARLNYRDSKPAYMADIPLTLTYIVDIAMQYPELVPFAHWLTRRVLPAFTASQSLSEVKQ,not soluble
2,GEINGVSGIFPASSVEVIKQLPQPPPLCRALYNFDLRDKDKSENQDCLTFLKDDVITVISRVDENWAEGKLGDKVGIFPILFVEPNVSARHLLQNKGHQLSRTRHLSLMSSPSRGKATNTSSLRKSPGSRRKGSGQFSMTTALNTLNRTVHSPEGHQMVEISTPMLISSNSPSVLTQHGDKADFPTSSTGQVSSSQPAPASPGHSTAMVSVPSSQQHLSNNMFVALHTYSAHRPEELDLQKGEGIRVLGKYQDGWLKGLSLLTGRTGIFPSDYVIPVFSSTARKTSSFPDSRSPTVCTTWALSTSSVSSQGSFAEGDPRQSGPFKSVFVPTAVVNPSRSTPGPGSSGQGSLRKVRSSMRKNGSLQRPVQSGIPTFMVGSLRCSPTMVIRPQRFQFYPPQGMTPSPTPIMVEMGSKSIYTGEPALTCINRGSKTRIHSAGNSIIMEGKETPIKSEPPPKPPASAPPSILVKPENSKNGTEKQVKTVRFQNYSPPPTKHSASSPTSGKHDHPATLKGSQHEAVSSGGEMTILFAHRSGCHSGQQTDLRRKSAFGKTMPLLSTASATQTLFPSK,soluble
3,MNKTKNYSDETIDAFHRGKFYLVQPRLCGHRSGMDAMLLASLVPNNFKGKVVDLGAGAGAVGLAVAARCLDVHVTLVERSAFMVSYAQKTLMLKQNENLSKRVCLLKADVTLKGRSRLEAGLVDNAFDFAIMNPPFNNPVDRKTPDEKKFEAHVMPESMFDDWLRSAAAIVKPGGYLGLIARPQSLTDILCALEGRFGNICVIPIHARTEKAAIRVLFYAKRGSRAALSLLRPLVIHEDGCHIFSPKIDAINNGHISLWELLK,not soluble
4,MGSDKIHHHHHHMSKSLFPFRFLLPVPVDHYENFPVASWLLPGRLREPVSAIYRFARSADDLADEGDAPPRARLQELARYHSELDRIERGEIPDDPIFGRLAAAIRAHALPLTPFRDLLSAFAQDIEKTRYASFGEVMDYCRRSANPVGRLMLHLYGDHDPRHQAYSDAICSSLQLINFLQDVAIDYAKGRIYLPQDELAAHHVSEAQIAAGDAGGLWRMMMHKQIERARKLLQAGAPLGRALDGRIGLELRVTIRGGETILRKLHADPGCVFGARPVLGKRDWIVMLARSVL,not soluble
5,YTVEPVQDGERSVTLRRAGGTPLVAAMYHLPAAGSPDFVGLDLAATILADTPSGRLYHALVPTKLASGVFGFTMDQLDPGLAMFGAQLQPGMDQDKALQTLTATLESLSSKPFSQEELERARSKWLTAWQQTYADPEKVGVALSEAIASGDWRLFFLQRDRVRDAKLDDVQRAAVAYLVRSNRTEGRYIPTEKPQRAPLAQRADLAAV,soluble
6,GMDGASEIELVFRPHPTLMEKDDSAQTRYIKTSGNATVDHLSKYLAVRLALEELRSKGESNQMNLDTASEKQYTIYIATASGQFTVLNGSFSLELVSEKYWKVNKPMELYYA,soluble
7,MSLERPEEYLPNIFEGKKGVIVDYGCGNGFYCKYLLEFATKLYCIDINVIALKEVKEKFDSVITLSDPKEIPDNSVDFILFANSFHDMDDKQHVISEVKRILKDDGRVIIIDWRKENTGIGPPLSIRMDEKDYMGWFSNFVVEKRFNPTPYHFGLVLKRKTSEGHHHHHPDPNSSSVDKLAAALEHHHHHH,soluble
8,MGSDKIHHHHHHVKDGFDLVDTGDPFDTITPVIPISDRPRSQSVVAGTLNDPYRRQAVADARSLWRKSIPGSRGVVAAYLASQGIQLDEIPANLRFVLDHPYMKKSGGLYHELHRGPCVLGGIFSEAGQLLGVNQIWVDPKPPHGRASIQMDGDHMPAEIVRGSCKGGFLPLVWPEAATALVVARSLEAALRAYASRPSGLEDAAYWAVVDLKVMSGKMQRQKGVRYSGLPDLSDDTSFVAPHWVKRLVFLQEDDRTGTRQKLESGLKRSMHVRPGLRASIVRIGSAAKGGV,not soluble
9,MDPGPWNECVPVRMPDDPQIHMVSNTRQAVELLTKRWPVSHGQAYQAAIDICMAVLERESPAYVARVAFVAAAKEAQVNIVS,not soluble
10,MQGRVKWFNAEKGFGFIEREDGDDVFVHFSAIQQDGYKSLEEGQQVEFDIVDGARGPQAANVVKL,not soluble
11,LSSKYSRNTELRRVEDNDIYRLAKILDENSCWRKLMSIIPKGMDVQACSGAGCLNFPAEIKKGFKYTAQDVFQIDEAANRLPPDQSKSQMMIDEWKTSGKLNERPTVGVLLQLLVQAELFSAADFVALDFLNESTPARPVDGPGALISLELLE,soluble
12,MSERAPLVIIGTGLAGYNLAREWRKLDGETPLLMITADDGRSYSKPMLSTGFSKNKDADGLAMAEPGAMAEQLNARILTHTRVTGIDPGHQRIWIGEEEVRYRDLVLAWGAEPIRVPVEGDAQDALYPINDLEDYARFRQAAAGKRRVLLLGAGLIGCEFANDLSSGGYQLDVVAPCEQVMPGLLHPAAAKAVQAGLEGLGVRFHLGPVLASLKKAGEGLEAHLSDGEVIPCDLVVSAVGLRPRTELAFAAGLAVNRGIVVDRSLRTSHANIYALGDCAEVDGLNLLYVMPLMACARALAQTLAGNPSQVAYGPMPVTVKTPACPLVVSPPPRGMDGQWLVEGSGTDLKVLCRDTAGRVIGYALTGAAVNEKLALNKELPGLMA,soluble
13,MCESDKLHDEINVIDIKIYPNRFLKPKTTELLLNKICGLEGYVRFLIHGPSLPKKVFYGPGKGHDVNHGDRKSILVNGNGIDLKVMVGEIIITVELDKFNDFMNQLEDILTETLSVEYSLLVGIFTRTTSTISDYLKYGIGFENLIDKRYIGLIDSRARSSESISIIKLEHHHHHH,not soluble
14,SRSYRFSDYLHMSVSFSNDMDLFCGEDSGVFSGESTVDFSSSEVDSWPGDSIACFIEDERHFVPGHDYLSRFQTRSLDASAREDSVAWILKVQAYYNFQPLTAYLAVNYMDRFLYARRLPETSGWPMQLLAVACLSLAAKMEEILVPSLFDFQVAGVKYLFEAKTIKRMELLVLSVLDWRLRSVTPFDFISFFAYKIDPSGTFLGFFISHATEIILSNIKEASFLEYWPSSIAAAAILCVANELPSLSSVVNPHESPETWCDGLSKEKIVRCYRLMKAMAIENNRLNTPKVIAKLRVSVRASSTLTRPSDESSFSSSSPCKRRKLSGYSWVGDETSTSN,soluble
15,GQVQLVESGPGLVAPSQSLSITCTVSGISLSRYNVHWVRQSPGKGLEWLGMIWGGGSIEYNPALKSRLSISKDNSKSQIFLKMNSLQTDDSAMYYCVSYGYGGDRFSYWGQGTLVTVS,soluble
16,MSLKNNRHFLKFYCIRDLSWLSSVRASFIYSSFESIASSPFSSYIELRKKPVKFLLILFIALTLCDCGRSKETQFYLLTPISPQKNSRNSYNHLQIGVDEVSIPDYMKKPQLMIHQTPHHLTLEEFNQWAGALDKNITLVLTTNLSTLMPGVVVQTSPWNNKFHPDYHLQVMISQFEIDIHGNSTLRAEYFIYRKEELIYKGNAYYHIKVPLISIETLVQSMNTNLTHLTEEIARFFIKNTTKEGHHHHHH,not soluble
17,DVQLQESGPGLVKPSQSLSLTCTVTGYSITNNYAWNWIRQFPGNKLEWMGYINYSGTTSYNPSLKSRISITRDTSKNQFFLQLNSVTTEDTATYFCVRGYDYFAMDYWGQGTSVTVSSAKTTPPSVYPLAPGSAAQTNSMVTLGCLVKGYFPEPVTVTWNSGSLSSGVHTFPAVLQSDLYTLSSSVTVPSSTWPSETVTCNVAHPASSTKVDKKIVPRDCG,soluble
18,MQYKLILNGKTLKGETTTEAVDAATAEKVFKQYANDNGVDGEWTYDDATKTFTVTEGSHHHHHHMHRDSCPLDCKVYVGNLGNNGNKTELERAFGYYGPLRSVWVARNPPGFAFVEFEDPRDAADAVRELDGRTLCGCRVRVELSNGEKR,soluble
19,MPREFKSFGSTEKSLLSKGHGEPSYSEIYAEPENFLEIEVHNPKTHIPNGMDSKGMFTDYEIICRTNLPSFHKRVSKVRRRYSDFEFFRKCLIKEISMLNHPKVMVPHLPGKILLSNRFSNEVIEERRQGLNTWMQSVAGHPLLQSGSKVLVRFIEAEKFVG,soluble
20,SLLASTRHIARGDTGNVSVRIRRVTTTRAGGVSAPPFDTFNLGDHVGDDPAAVAANRARLAAAIGLPGNRVVWMNQVHGDRVELVDQPRNTALDDTDGLVTATPRLALAVVTADCVPVLMADARAGIAAAVHAGRAGAQRGVVVRALEVMLSLGAQVRDISALLGPAVSGRNYEVPAAMADEVEAALPGSRTTTAAGTPGVDLRAGIACQLRDLGVESIDVDPRCTVADPTLFSHRRDAPTGRFASLVWME,not soluble
21,MSISKDSRIAIIGAGPAGLAAGMYLEQAGFHDYTILERTDHVGGKCHSPNYHGRRYEMGAIMGVPSYDTIQEIMDRTGDKVDGPKLRREFLHEDGEIYVPEKDPVRGPQVMAAVQKLGQLLATKYQGYDANGHYNKVHEDLMLPFDEFLALNGCEAARDLWINPFTAFGYGHFDNVPAAYVLKYLDFVTMMSFAKGDLWTWADGTQAMFEHLNATLEHPAERNVDITRITREDGKVHIHTTDWDRESDVLVLTVPLEKFLDYSDADDDEREYFSKIIHQQYMVDACLVKEYPTISGYVPDNMRPERLGHVMVYYHRWADDPHQIITTYLLRNHPDYADKTQEECRQMVLDDMETFGHPVEKIIEEQTWYYFPHVSSEDYKAGWYEKVEGMQGRRNTFYAGEIMSFGNFDEVCHYSKDLVTRFFV,soluble
22,MVGWWPVGRRQAWHRFFPCHRRPALRCDAHSFFAPGKHIMAHRILTLGEITDGFDVVLSDVWGVLHNGVSAFPDAAVALHEARKAGKTVVLITNSPRPAPGVIAQLRVLGVPDEAYDRIITSGDVTRGLIAEGPKKVFLLGPERDMPLLEGLDVERVGEAEAQSVVCTGFFDDETETPEDYTEMLKGFIARKVPMICANPDLVVERGERIIPCAGAMAAYYEQLGGEVRIAGKPHAPIYEACLAAAKDVRGAFAKDRVLAIGDGMPTDVKGAIASGLNLLYISGGIHAAEYTLNGQTDEALLNAYLKGQGAAPGWWMPRLA,not soluble
23,MVCKVCGQKAQVEMRSRGLALCREHYLDWFVKETERAIRRHRMLLPGERVLVAVSGGKDSLALWDVLSRLGYQAVGLHIELGIGEYSKRSLEVTQAFARERGLELLVVDLKEAYGFGVPELARLSGRVACSACGLSKRYIINQVAVEEGFRVVATGHNLDDEAAVLFGNLLNPQEETLSRQGPVLPEKPGLAARVKPFYRFSEREVLSYTLLRGIRYLHEECPNAKGAKSLLYKEALNLVERSMPGAKLRFLEGFLEKIRPRLDVGEEVALKECERCGYPTTGAVCAFCRMWDAVYRRAKKRRLLPEEAVFHPKAPVARG,soluble
24,MFVLNIFSTTHKQRGLNRASCPPLGNYSNNHTLAYRVKCISEETRDSNSLVSSLNRKLWKTSVAGSDIPMIYSPFLEDMQNTLFASFETVEDYPLSEFLASAQSSKKPARIESWCYQCPKFRKIRLTYLDAGVAAQVFNAVWYPISSLELPILGVDFLSFGGKNVLCVMDFQPLMNDQYYLDKYIQPLHPIRERYADLAGRMSSRFYDENRFFSKELLFGRFDSTKPIYERLFPAFREYLDLYITLAKQTVEDDKSRSIIWQLQCEYDRYSAEKDPAMSLFRSYFGSTWAHRFVYEFLFENSRYESSLDNKT,soluble
